Laboratory results from publication PMC7062162.

Target: HA 2NΔ peptide-DR1 complex (human | influenza A virus) (UniProt P03437)

Question: With “soluble recombinant HLA-DM (DMA*0101/DMB*0101) (complex)” as the substance, how does the kcat, fold change against the full HA peptide complex read?
Answer: 5 fold
